Experimental data reported in paper PMC6362458 (Journal of the American Chemical Society, 2017).

What was measured:
[1] = 2 h
[2] = Photolysis of P2-insulin suspension in pH 7.2 PBS; assay type: physicochemical
[3] = Visual precipitation on pH shift and clarification on photolysis; assay type: physicochemical; details: 75µM, 10 minutes 365nm LED (1.84 mW/cm^2)
[4] = cited from earlier work
[5] = Isoelectric point determination by IEF gel electrophoresis; assay type: physicochemical; details: data not shown

| Substance | Solubility at pH 4 [1] [µM] | Insulin released from unirradiated control suspension ([2]; pH 7.2 PBS suspension processed identically, no 365 nm irradiation, IEF gel) | P2-insulin in supernatant of irradiated suspension ([2]; pH 7.2 PBS, IEF gel of supernatant) | Appearance of pH 7.2 suspension after irradiation [3] | pI (isoelectric point) [4] | pI of insulin reacted with uncharged DMNPE derivative vs native insulin [5] |
| --- | --- | --- | --- | --- | --- | --- |
| P2-Insulin: insulin with two pyrrolidines linked via the photocleavable DMNPE group; likely mixture of modified carboxyl sites | 216 | no insulin released | no detectable P2-insulin | substantially clarified the suspension | – | – |
| insulin | – | – | – | – | 5.4 | 5.4 |
